Results as given in PMC4500099.

Target: Mercuric ion reductase (MerA) from Metallosphaera sedula (Metallosphaera sedula)
Experiment: crystal structure; hanging drop; 0.085M TRIS (pH 8.5), 15% v/v glycerol, 14% w/v PEG400, 0.19M LiSO4, 20 mg/mL protein; data collected at 100 K; bound FAD; space group P22(1)2(1), two monomers per asymmetric unit

For “Mercuric ion reductase (MerA) from Metallosphaera sedula (enzyme)”, the stoichiometry N was 2.
